Reference: patent US20180230218A1
Each block holds one substance with its values, some of them ahead of it.

Experiments:
[1] = biological target: human cMET (MET, c-Met, HGF receptor) on cells (human) (UniProt P08581); assay: cell-based or functional assay
[2] = biological target: human cMET (MET, c-Met, HGF receptor) on cells (human) (UniProt P08581); assay: flow cytometry, inhibition of HGF (50 ng/mL) binding to MKN45 cells
[3] = biological target: human cMET (MET, c-Met, HGF receptor) on cells (human) (UniProt P08581); assay: flow cytometry, inhibition of HGF (50 ng/mL) binding to BxPC3 cells

Sequence of human cMET (MET, c-Met, HGF receptor) on cells (human) (P08581 25-1390): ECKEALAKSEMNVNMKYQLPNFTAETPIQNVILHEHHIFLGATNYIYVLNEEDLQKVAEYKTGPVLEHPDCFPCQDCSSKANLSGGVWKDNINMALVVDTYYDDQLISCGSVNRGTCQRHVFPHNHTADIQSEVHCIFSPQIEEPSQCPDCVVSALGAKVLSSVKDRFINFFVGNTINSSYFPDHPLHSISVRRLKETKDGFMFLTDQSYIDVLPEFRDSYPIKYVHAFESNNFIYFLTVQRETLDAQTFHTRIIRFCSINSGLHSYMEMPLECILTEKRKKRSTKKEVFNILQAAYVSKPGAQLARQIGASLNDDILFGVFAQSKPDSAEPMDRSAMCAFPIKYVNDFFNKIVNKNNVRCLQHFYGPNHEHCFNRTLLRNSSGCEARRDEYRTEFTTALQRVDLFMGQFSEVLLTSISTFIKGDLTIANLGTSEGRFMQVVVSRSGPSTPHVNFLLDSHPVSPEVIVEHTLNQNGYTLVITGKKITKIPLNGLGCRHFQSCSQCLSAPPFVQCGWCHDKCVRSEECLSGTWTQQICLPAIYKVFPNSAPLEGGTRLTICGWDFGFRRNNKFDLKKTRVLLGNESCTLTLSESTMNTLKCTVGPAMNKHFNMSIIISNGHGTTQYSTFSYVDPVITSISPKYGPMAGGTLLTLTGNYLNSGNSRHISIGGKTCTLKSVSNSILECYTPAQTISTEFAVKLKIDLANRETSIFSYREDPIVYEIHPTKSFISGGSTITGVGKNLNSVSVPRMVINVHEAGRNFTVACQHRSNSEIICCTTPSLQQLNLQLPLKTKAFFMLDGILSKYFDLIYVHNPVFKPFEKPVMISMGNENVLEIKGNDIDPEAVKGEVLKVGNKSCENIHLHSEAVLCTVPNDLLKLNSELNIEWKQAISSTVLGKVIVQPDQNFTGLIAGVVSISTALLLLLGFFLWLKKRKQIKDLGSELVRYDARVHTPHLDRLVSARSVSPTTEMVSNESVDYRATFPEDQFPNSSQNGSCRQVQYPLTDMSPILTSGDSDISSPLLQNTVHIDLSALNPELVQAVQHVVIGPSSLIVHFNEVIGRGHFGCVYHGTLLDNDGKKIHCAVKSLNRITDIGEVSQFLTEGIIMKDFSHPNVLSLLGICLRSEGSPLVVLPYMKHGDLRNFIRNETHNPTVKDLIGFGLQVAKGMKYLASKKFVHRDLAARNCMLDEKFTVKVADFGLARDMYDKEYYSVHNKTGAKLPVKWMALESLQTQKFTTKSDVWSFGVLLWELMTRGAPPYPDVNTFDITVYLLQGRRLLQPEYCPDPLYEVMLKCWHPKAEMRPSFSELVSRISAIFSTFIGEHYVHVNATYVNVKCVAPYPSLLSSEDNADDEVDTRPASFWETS

- percent induction of NCI-H441 cell growth (WST-8), normalised to 100 ng/mL HGF [1]: 92%
Substance: 5D5 (antibody)

- % inhibition of HGF binding [2]: 67%
- % inhibition of HGF binding [3]: 50%
Substance: 224G11 (antibody)

Substance: huIgG-SMCC-DM1 (antibody)
- in vitro cytotoxicity in MET-expressing MKN45 cells, EC50 [1]: > 30 nM
